± gives the half width of the 95% confidence interval.

Series [1] can be described thus: folding stability dG unfold (combined trypsin and chymotrypsin); higher = more stable. An outline of the steps:
(§1)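 Digests were run with trypsin and chymotrypsin at 11 concentrations in threefold dilutions, plus a no-protease condition, on designed mini-proteins in a PA-tagged cDNA display construct. The mini-proteins were under 80 residues, had no cysteine, and were kept only when AlphaFold2 dimer inter-PAE was above 15. After sequencing, Bayesian fitting of the counts gave K50, from which unfolding free energy was derived against a sequence-predicted unfolded-state K50 and a shared folded-state K50, per protease or combined.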

Series [2] can be described thus: folding stability dG unfold from chymotrypsin proteolysis; higher = more stable. An outline of the steps:
as §1

Consider “SAGMKVVRTRTVWADDSDNPTPLAPEVELVRDAPPTFPLPVTVTTPDGRPYTGTLIALDPDREGLVLGGSAG [r5_735_TrMRF]”, for which the “folding stability dG unfold” value is -0.29 ± 0.19 kcal/mol in series [1] and 0.254 ± 0.17 kcal/mol in series [2].

Turning to “SAGMMRVEVFGDGELLEVTELDGDTVEVPVPPERHRVRVFAPGDDRAAEAEVDPAKGVVVLKVPADARISAG [r5_469_TrMRF]”, the “folding stability dG unfold” value in series [1] was -0.821 ± 0.38 kcal/mol; in series [2], -0.197 ± 0.24 kcal/mol.

For “SAGMPVLVSAPIPLARGPDGVARIDPALVRALAEAAGFTGRVESVEVRPLPDSYLVAVRLPDSVLLGESAGG [r19_398_TrMRF]”, the “folding stability dG unfold” value is -0.31 ± 0.11 kcal/mol in series [1] and 0.672 ± 0.077 kcal/mol in series [2].

Regarding “SAGMSSTPQKIVRTTGSTPLPDGSAVSTTTTTYSDGSSTVTTAIPGGLETRATVPPDGTVTTTTAPLLGSAG [r5_168_JUSTAS]”, the “folding stability dG unfold” value in series [1] is -0.422 ± 0.26 kcal/mol; in series [2], -0.248 ± 0.23 kcal/mol.

Consider “SAGMVKINVAKLPDGKYVITVVDANDGTPLLELPVDSPEGAEKAAKAIAEELKKKYPDATVEVDYTDFESAG [r5_383_TrMRF]”, for which the “folding stability dG unfold” value was determined as 4.13 ± 0.64 kcal/mol in series [1] and 3.49 ± 0.19 kcal/mol in series [2].

For “SAGNPSLKLKTETQVEVTEVSESVLPDGGYTLTKSKFTVTTTIYDTTKPKVLSTETTEETETVATPLVSAGG [r19_136_JUSTAS]”, the “folding stability dG unfold” value in series [1] was 0.0701 ± 0.07 kcal/mol; in series [2], 0.442 ± 0.11 kcal/mol.

“SAGPLEELLARAERVEEDPSTGKRLVYTSDPELVRAALAEGAPDYTLTESPDDRRSALINFPPLPPGVLSAG [r14_115_JUSTAS]”: the “folding stability dG unfold” value in series [1] was -0.0125 ± 0.14 kcal/mol; in series [2], 0.32 ± 0.14 kcal/mol.

On to “SAGRPPEALREEVSEETITIPVPSTDSDEAPALTTKVTKTTTRLPTPVTTTTTTTTYPDGTTTTTTTAASAG [r5_580_JUSTAS]”, for which the figures for the “folding stability dG unfold” value in series [1] and in series [2] were -0.061 ± 0.11 kcal/mol and 0.285 ± 0.033 kcal/mol, respectively.

Regarding “SAGSETVLKTTTEPRTEPDSEVETTTEVYPDGKRITRTTTTYPNPGEGNPATPVTTTTTTVTELPPNELSAG [r5_224_JUSTAS]”, the “folding stability dG unfold” value in series [1] was less than -1 kcal/mol; in series [2], -0.378 ± 0.12 kcal/mol.

With “SAGSIQVSESALAPGYSLYTITIPYQSIEDAKKLVEEIVSKRFSVPAEIIETKVDPNTGVVTFTVKVPPSAG [r5_810_JUSTAS]”, the entries for the “folding stability dG unfold” value in series [1] and in series [2] were 5.32 ± 0.15 kcal/mol and 5.31 ± 0.088 kcal/mol, respectively.

Take “SAGSSRIIFYPENNTYLIETPEGSFTLPETVTTTTPAPTGENPDRTVPRPTTTYVATELSLEEAEKLLSSAG [r5_234_JUSTAS]”: the “folding stability dG unfold” value was -0.149 ± 0.076 kcal/mol in series [1] and 0.367 ± 0.051 kcal/mol in series [2].

On to “SAGSVTVEVFGPGRLLATYTLDDTTTTVAVPPEPVRVRIRSPGDDAEATADADPATGVVTVTVPADLGLSAG [r5_469_JUSTAS]”, for which the “folding stability dG unfold” value in series [1] is 0.165 ± 0.064 kcal/mol; in series [2] it was 0.679 ± 0.05 kcal/mol.

Turning to “SAGTITKLKTEYDPKGYRFIELLDPLPNDPSVPAEALAQEIKEKYGAEKAEIKPVPGTGAIRILLIKPESAG [r14_228_JUSTAS]”, the “folding stability dG unfold” value is -0.67 ± 0.42 kcal/mol in series [1] and -0.396 ± 0.48 kcal/mol in series [2].

Take “SAGTVFVAHSDDRPPVAAPETGTVTLPAPDGARVTLRRLPDGTAVVTPDGGESRTLGPGARVEVRLLPASAG [r5_869_TrMRF]”: the “folding stability dG unfold” value in series [1] was less than -1 kcal/mol; in series [2], -0.156 ± 0.37 kcal/mol.

Regarding “SAGVEPTPDGKWRIEINPEEGHIRVRMKNGEPHEIPFPEGSLDDFADEIAEKMGFPPDKPFKIDEIEIWSAG [r5_923_TrROS]”, the results for the “folding stability dG unfold” value in series [1] and in series [2] were -0.273 ± 0.19 kcal/mol and -0.0363 ± 0.21 kcal/mol, respectively.

As for “SAGVKIKWEPIDRDPKNGHVYYSITIKVPKDGKPLDEIPIGMYQFDNDDGKWEPMPEEDIKQQAKDLLNSAG [r5_909_TrROS]”, the figures for the “folding stability dG unfold” value in series [1] and in series [2] were -0.415 ± 0.52 kcal/mol and 0.0649 ± 0.34 kcal/mol, respectively.

Turning to “SAKVHIPFPPGMPPKQMRNMVKNALREQQNNGKEPDKITIHMPPDQRPIKDWLKEAGLPPDNVKWEPWPSAG [r14_589_TrROS]”, the entries for the “folding stability dG unfold” value in series [1] and in series [2] were less than -1 kcal/mol and -0.422 ± 0.55 kcal/mol, respectively.

Consider “SALEPGEWRKVTAEIPLPGGPLKLEIYEWPSNGHYYADIRNPGNGRPVEIPFPFDTPDDAVDEAKDFIRSAG [r14_65_TrROS]”, for which the “folding stability dG unfold” value in series [1] is -0.625 ± 0.63 kcal/mol; in series [2], 0.101 ± 0.4 kcal/mol.

In the case of “SAMIVTEKEDPATNTTLVTTTEIYPDSITVTTTTITKSGEILTESPSTTTIPLGSPLGPENKAKNIALSSAG [r14_930_JUSTAS]”, the “folding stability dG unfold” value in series [1] was less than -1 kcal/mol; in series [2], -0.184 ± 0.14 kcal/mol.

“SAMKKLRELLEKEFPDRPIKSVKNLGEKLAPDGTPYYVVELTFPDGSTITVTITSEEKPEILEAIEEEESAG [r14_143_JUSTAS]”: the “folding stability dG unfold” value in series [1] was 4.03 ± 0.27 kcal/mol; in series [2] it was 3.9 ± 0.22 kcal/mol.

As to “SAMKTYTFEFTLTVPPDTPLEEVKAKVKEKVKAELKKLGIPLPETAKIEIKKVKEEGNKIYFKVTVTNKSAG [r14_735_JUSTAS]”, the “folding stability dG unfold” value is 4.16 ± 0.14 kcal/mol in series [1] and 4.06 ± 0.057 kcal/mol in series [2].

For the sequence “SAMTPDELADELAKKFHQQNQENGYEIPDVDIKYDPEEDRVTVEFEMRNKNTGRPMRPTFQIDDPEDILSAG [r14_409_TrROS]”, the entries for the “folding stability dG unfold” value in series [1] and in series [2] were less than -1 kcal/mol and -0.247 ± 0.33 kcal/mol, respectively.

Turning to “SAPAVETRSVTTEPVASPTPRVPYTLVVESVTTTAVDAAGTPVATSVSLKEVRYGDGTISRTFSATPTASAG [r14_848_JUSTAS]”, the “folding stability dG unfold” value in series [1] is less than -1 kcal/mol; in series [2], -0.953 ± 0.29 kcal/mol.

In the case of “SAPEIVVERFEDGSRRLGFTIPGYEVLEEVDVPANETEKTAVFTLPDRVLVFTFREEGIEPRPVPLDELSAG [r14_403_TrMRF]”, the entries for the “folding stability dG unfold” value in series [1] and in series [2] were -0.598 ± 0.25 kcal/mol and -0.201 ± 0.3 kcal/mol, respectively.

“SAPPATLTVDSVEFHPETGTLTIPFSHPAGPTASVLFRNEDGEVLEIPGTVPTATIRAEPNMRLERVFLGSA [r9_113_TrMRF]”: the “folding stability dG unfold” value is -0.0386 ± 0.081 kcal/mol in series [1] and 0.499 ± 0.1 kcal/mol in series [2].

In the case of “SASLTPVGPGPDSVVTADPSTGKLYRLEPADGRLTVTTTTFAPGPAAPAPTTTTLPLSPEEAAALRALLSAG [r14_245_JUSTAS]”, the “folding stability dG unfold” value in series [1] is less than -1 kcal/mol; in series [2], -0.304 ± 0.26 kcal/mol.

For the sequence “SGGMTPEQMIRHVLREARANNPGKKIEISWNSIQKNFPHPMSPEEIKKELKEEDGIKDVTIQPIPPNDPFSA [r9_738_TrROS]”, the “folding stability dG unfold” value in series [1] was less than -1 kcal/mol; in series [2], -0.315 ± 0.29 kcal/mol.

As to “SGMPPVSVSSIEPVSVSPDGTSRTFRAPLTTPSGEPVTYTGPVSEILKRVEEEGWGPTASAPGGLVEVRDSA [r9_1078_JUSTAS]”, the figures for the “folding stability dG unfold” value in series [1] and in series [2] were -0.583 ± 0.1 kcal/mol and -0.368 ± 0.12 kcal/mol, respectively.

As to “SGMTPVSVSRKFTSTFPNGTPVSDPGGLVVLVPEPPPPPYVHLSPEEVEAARAAAAAAGSPLTEADIRASSA [r9_487_JUSTAS]”, the “folding stability dG unfold” value in series [1] was -0.642 ± 0.42 kcal/mol; in series [2], 0.164 ± 0.21 kcal/mol.

As to “SGRIKDVIMERDDNGGGNIMIMKLGNGEMEHIPPGEKLEIPLPPDDTLYLMVFDPNDGEPIETEEIKVDDSA [r9_209_TrROS]”, the entries for the “folding stability dG unfold” value in series [1] and in series [2] were less than -1 kcal/mol and -0.367 ± 0.35 kcal/mol, respectively.

For “SMDVVTEVTVKLPYRDASHHHHLNIKVTRTISSKDPSLSPEALPPEVLAEEAKKEAIEELKKKGIPEEFLSA [r9_516_JUSTAS]”, the “folding stability dG unfold” value in series [1] was less than -1 kcal/mol; in series [2], -0.346 ± 0.64 kcal/mol.

On to “SMEFTIEVYDPVTPKVETFPVKAPKEKVIEKIREFQEKGGKVVLSGLPEEKVKEIVEEAGVDVEIVPVEKSA [r9_1207_TrMRF]”, for which the “folding stability dG unfold” value in series [1] stood at 0.283 ± 0.19 kcal/mol; in series [2], 0.54 ± 0.09 kcal/mol.

The values are drawn from the supplement of paper PMC12764529.
